Source: patent US20200123264A1 (Regeneron, published 2020)

T1: human LEPR Ig (D3)-MMH (human, UniProt P48357 340-427, limits assumed)
T1 construct: domain: Ig (D3); Transiently expressed, captured from supernatant on anti-myc beads
T1 sequence (looked up): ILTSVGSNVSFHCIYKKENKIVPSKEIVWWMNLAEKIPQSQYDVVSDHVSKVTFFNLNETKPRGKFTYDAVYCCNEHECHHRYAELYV

T2: human LEPR CRH1-Ig (D2,D3)-MMH (human, UniProt P48357 230-427, limits assumed)
T2 construct: domain: CRH1-Ig (D2,D3); Transiently expressed, captured from supernatant on anti-myc beads
T2 sequence (looked up): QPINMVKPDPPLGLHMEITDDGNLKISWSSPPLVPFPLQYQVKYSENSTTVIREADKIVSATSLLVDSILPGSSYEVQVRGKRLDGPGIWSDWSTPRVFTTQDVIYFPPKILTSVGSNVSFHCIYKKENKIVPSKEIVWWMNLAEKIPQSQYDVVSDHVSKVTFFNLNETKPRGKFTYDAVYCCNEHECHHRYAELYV

T3: extracellular domain of human LEPR with an N-terminal myc-myc tag, GPI-anchored on HEK293 cells (human, UniProt P48357 22-839, GPI anchor at the C-terminus ; A GPI anchor is attached at the C end through a carboxypeptidase M derived peptide. The protein is displayed on HEK293 cells.)
T3 construct: also called HEK293/hLEPR-GPI; Mycx2-hLEPR(Ecto)-GPI
T3 sequence: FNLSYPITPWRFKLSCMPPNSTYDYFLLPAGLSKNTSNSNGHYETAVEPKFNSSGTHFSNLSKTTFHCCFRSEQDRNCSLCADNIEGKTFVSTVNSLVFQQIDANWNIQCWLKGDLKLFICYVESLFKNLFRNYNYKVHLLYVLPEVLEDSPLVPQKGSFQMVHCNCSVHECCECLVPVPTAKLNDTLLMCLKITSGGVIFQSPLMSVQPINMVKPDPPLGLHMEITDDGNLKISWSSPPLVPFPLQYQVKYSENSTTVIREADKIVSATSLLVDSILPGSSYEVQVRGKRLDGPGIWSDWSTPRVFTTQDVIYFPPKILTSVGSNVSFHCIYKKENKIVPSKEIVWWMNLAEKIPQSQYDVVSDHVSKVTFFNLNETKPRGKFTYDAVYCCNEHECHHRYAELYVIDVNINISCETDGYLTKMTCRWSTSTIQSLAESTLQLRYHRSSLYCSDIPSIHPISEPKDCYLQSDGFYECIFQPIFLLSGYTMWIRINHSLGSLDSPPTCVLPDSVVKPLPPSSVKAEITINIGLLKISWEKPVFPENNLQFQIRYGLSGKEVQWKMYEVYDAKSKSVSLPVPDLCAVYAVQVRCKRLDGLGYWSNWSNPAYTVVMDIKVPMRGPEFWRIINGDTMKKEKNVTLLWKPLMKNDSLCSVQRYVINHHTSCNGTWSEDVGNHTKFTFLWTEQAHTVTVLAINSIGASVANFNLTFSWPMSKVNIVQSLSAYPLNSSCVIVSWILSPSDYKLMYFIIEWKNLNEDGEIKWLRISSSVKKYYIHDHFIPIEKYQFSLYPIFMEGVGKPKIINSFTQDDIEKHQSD


Experiments:
[1] = target: T4, recombinant human LEPR extracellular domain expressed with a C-terminal myc-myc-hexahistidine tag (human, UniProt P48357 22-839); experiment: Luminex, myc-captured LEPR protein on beads, Ab 5 µg/mL
T4 construct: Monomeric construct; also called hLEPR.MMH; hLEPR-MMH
Description: (§1) Aliquots of microspheres with immobilized anti-myc monoclonal antibodies, prepared as described above, were added individually to 1 mL of the each of these protein supernatants. The microspheres were gently mixed, incubated for two hours at 25° C., washed twice with 1 mL of DBPS, centrifuged to remove the supernatant and finally resuspended in 1 mL of DPBS buffer. Forty eight μL of anti-myc IgG coupled microspheres from individual reactions with full length human LEPR and with each of the human LEPR domain proteins were withdrawn and mixed together in 3.6 mL of PBS+20 mg/mL BSA+0.05% sodium azide (blocking buffer).
(§2) From this mixed pool, 75 μL of microspheres were plated per well on a 96 well filter plate (Millipore, Cat. No: MSBVN1250) and mixed with 25 μL of individual anti-human LEPR monoclonal antibodies (0.5 or 5 μg/mL), incubated for two hours at 25° C. and then washed twice with 200 μL of DPBS with 0.05% Tween 20 (washing buffer). […] After 30 minutes, the samples were washed twice with 200 μL of washing buffer and resuspended in 150 μL of wash buffer. The Median Fluorescence intensity (MFI) of the microspheres was measured in a Luminex Analyzer.

human LEPR Ig (D3)-MMH = target: T1, human LEPR Ig (D3)-MMH; experiment: as above
Description: as §1, §2

[2] = target: T2, human LEPR CRH1-Ig (D2,D3)-MMH; experiment: as above
Description: as §1, §2

[3] = target: T3, extracellular domain of human LEPR with …; experiment: FACS, 10 nM Ab, HEK293/hLEPR-GPI cells, no added Leptin
Description: (§3) For the FACS analysis, HEK293 parental cells and HEK293/hLEPR-GPI cells were dissociated and plated onto 96-well v-bottom plates at 5×10⁵ cells/well in PBS containing 2% FBS (FACS buffer). […] Cells were subsequently fixed using BD CytoFix™ (Becton Dickinson, #554655), filtered, and analyzed on a HyperCyt Flow Cytometer (Beckman Coulter). Unstained and secondary antibody alone controls were also tested for all cell lines. The results were analyzed using ForeCyt (IntelliCyt) and FlowJo version 10 softwares to determine the geometric means of fluorescence for viable cells. The geometric mean of fluorescence for each sample was then normalized to the geometric mean of unstained cells to obtain relative binding per condition referred to as “binding ratios”, and these binding ratios were recorded in Table 14 for each antibody tested.

[4] = target: T3, extracellular domain of human LEPR with …; experiment: FACS, 10 nM Ab, HEK293/hLEPR-GPI cells, 1 µM Leptin
Description: as §3

Row | Luminex MFI [1] [MFI] | Luminex MFI (human LEPR Ig (D3)-MMH) [MFI] | Luminex MFI [2] [MFI] | Binding Ratio (normalized to unstained) [3] [fold] | Binding Ratio (normalized to unstained) [4] [fold] | Binder
1 | 8640 | 26 | 43 |  |  | H4H18437P2 (antibody, human IgG4, V domains shown, H4H prefix: human IgG4 Fc) VH: QVQLVESGGGVVQPGRSLRLSCAASGFTFSSYGIHWVRQAPGKGLEWVAVISYDGNNKYYADSVKGRFTISRDNSKNTLYLQMNSLRAEDTAVYYCAKDLFLEWLFHGMGVWGQGTTVTVSS VL: not shown
2 | 5850 | 21 | 47 | 1170 | 759 | H4H18462P2 (antibody, human IgG4, V domains shown, H4H prefix: human IgG4 Fc) VH: EVQLVESGGDLVQPGRSLRLSCAASGFTFSSFAMSWVRQAPGRGLEWVSSLSDSGDNTYYADSVKGRFTISRDNSKNTLYLQMNNLRAEDTAVYYCAKDLFSGWLFHGFDVWGQGTMVTVSS VL: not shown
3 | 7500 | 18 | 43 | 3190 | 3110 | H4H18457P2 (antibody, human IgG4, V domains shown, H4H prefix: human IgG4 Fc) VH: EVQLVESGGSVVRPGESLRLSCAASGFTFDDYGMSWVRQAPGKGLEWVSGISWNGGITVYADSVKGRFTVSRDNAKNSLYLQMNSLRAEDTALYHCARARYGGADYWGQGTLVTVSS VL: not shown
4 | 9380 |  | 3740 | 2320 | 3590 | H4H18464P2 (antibody, human IgG4, V domains shown, H4H prefix: human IgG4 Fc) VH: QVQLVQSGPEVKKPGASVKVSCKGSGYTFSWYGISWIRQAPGHGLEWMGWISASSGNTRFAQKVQGRLTMTTDTSTSTAYMELRSLRSDDTAVYYCARTGTRPFDYWGQGTLVTVSS VL: not shown
5 | 5070 | 26 | 76 | 824 | 398 | H4H18466P2 (antibody, human IgG4, V domains shown, H4H prefix: human IgG4 Fc) VH: EVQLVESGGGLVQPGGSLRLSCTASGFTFSSYGLHWVRQAPGKGLEYVSSINHNGGSKYYADSVKGRFTISRDNSKNTLFLQMGSLKTEDMAVYYCARDLFLEWLFHGFDIWGQGTMVTVSS VL: not shown
6 | 8930 | 26 | 58 |  |  | H4H17322P2 (antibody, human IgG4, V domains shown, H4H prefix: human IgG4 Fc) VH: QLQLQESGPGLVKPSETLSLTCTVSGASISSSRFYGGWIRQPPGKGLEWIGDIYYSGNTYYNPSLQSRVTISVDTSKNQFSLKLSSVTAADTAVYYCARHLMITFGGLIVEGFDIWGQGTMVTVSS VL: not shown
7 | 7040 | 14 | 9160 | 1640 | 2560 | H4H18440P2 (antibody, human IgG4, V domains shown, H4H prefix: human IgG4 Fc) VH: QVQLVESGGGMVKPGGSLRLSCAASGFTFSDYYMSWIRQAPGKGLEWISHISITGSTIYYADSVKGRFTISRDNAKNSLYLEMNRLRDEDTAVYYCTRDEPDIVLVRYGMDVWGQGTTVTVSS VL: not shown
8 | 5470 | 18 | 10000 | 1530 | 2480 | H4H18439P2 (antibody, human IgG4, V domains shown, H4H prefix: human IgG4 Fc) VH: QLQLQESGPGLVKPSETLSLTCIVSGGDITSSSYYWNWIRQPPGKGLEWIGNIYYSGSTNYNPSLKSRVTISIDTSKSQFSLKLRSVTAADTAVYYCARLLRYFDWSKGYLDYWGQGTLVTVSS VL: not shown
